Laboratory results reported in US20090297438A1 (published 2009).
Numbering of substitutions follows the chain as printed.

Columns and labels:
[1] = target: T1, human prostate specific membrane antigen (PSMA) on LNCaP prostate cancer cells (human, UniProt Q04609 1-750); assay: flow cytometry on LNCaP cells, FITC-labeled anti-human IgG detection
T1 construct: whole, on cells; also called PSMA-expressing LNCaP cells
Experimental: The human PSMA-expressing prostate cancer cell line LNCaP was used to determine the specificity of anti-PSMA human monoclonal antibodies by flow cytometry. Binding of the 2F5, 2A10, and 2C6 anti-PSMA human monoclonal antibodies was assessed by incubating the LNCaP cells with the anti-PSMA human monoclonal antibodies at different concentrations. The cells were washed and binding was detected with a FITC-labeled anti-human IgG Ab. Flow cytometric analyses were performed using a FACScan flow cytometry (Becton Dickinson, San Jose, Calif.). The human anti-PSMA monoclonal antibody 7F12 (as described in PCT Publication WO 03/064606) was used as a positive control and a non-PSMA specific isotype control antibody was used as a negative control. The results are depicted in FIG. 9. The anti-PSMA human monoclonal antibodies 2F5, 2A10, and 2C6 bound specifically to the PSMA-expressing LNCaP cells.

[2] = target: T2, PSMA immunopurified from LNCaP cells (human, UniProt Q04609 1-750); assay: ELISA on PSMA immunopurified from LNCaP cells, HRP goat anti-human IgG (kappa chain-specific) detection
T2 construct: also called purified PSMA; immunopurified PSMA
Experimental: A comparison of anti-PSMA antibodies on binding to immunopurified PSMA was performed by standard ELISA to examine the specificity of binding for PSMA.
PSMA was immunopurified from LNCaP cells and tested for binding against the anti-PSMA human monoclonal antibodies 1C3, 2A10, 2F5, and 2C6. Standard ELISA procedures were performed. The anti-PSMA human monoclonal antibodies were added at a concentration of 5 μg/ml and titrated down at 1:2 serial dilutions. Goat-anti-human IgG (kappa chain-specific) polyclonal antibody conjugated with horseradish peroxidase (HRP) was used as secondary antibody. The human anti-PSMA monoclonal antibody 7F12 was used as a positive control and a blank was used as a negative control. The anti-PSMA human monoclonal antibodies 2A10 and 2F5 bound with high specificity to PSMA.

[3] = target: T1, human prostate specific membrane …; assay: cell-based or functional assay
[4] = target: T1, human prostate specific membrane …; assay: radioligand competition on LNCaP cells: unlabeled antibody varied against a fixed concentration of 125I-2A10
Experimental: (§1) LNCaP cells were obtained from ATCC(CRL-1740) and grown in RPMI media containing 10% fetal bovine serum (FBS). The cells were trypsinized and washed once in Tris based binding buffer (24 mM Tris pH 7.2, 137 mM NaCl, 2.7 mM KCl, 2 mM Glucose, 1 mM CaCl₂, IMM MgCl₂, 0.1% BSA) and the cells were adjusted to 2×10⁶ cells/ml in binding buffer. Millipore plates (MAFB NOB) were coated with 1% nonfat dry milk in water and stored a 4° C. overnight. The plates were washed three times with 0.2 ml of binding buffer. Twenty-five microliters of buffer alone was added to the wells (non-specific binding). A fixed concentration of ¹²⁵I-anti-PSMA antibody was added to all wells in a volume of 25 μl. Varying concentrations of unlabeled antibody was added to wells in a volume of 25 μl and 25 μl of LNCaP cells (2×10⁶ cells/ml) in binding buffer were added to all wells. The plates were incubated for 2 hours at 200 RPM on a shaker at 4° C. At the completion of the incubation the Millipore plates were washed three times with 0.2 ml of cold wash buffer (24 mM Tris pH 7.2, 500mM NaCl, 2 mM KCl, 2 mM Glucose, 1 mM CaCl₂, 1 mM MgCl₂, 0.1% BSA). The filters were removed and counted in a gamma counter. Evaluation of equilibrium binding was performed using single site binding parameters with the Prism software (San Diego, Calif.). An isotype control antibody was used as a negative control. […]

[5] = target: T1, human prostate specific membrane …; assay: Scatchard analysis, 125I-labelled antibody on LNCaP cells
Experimental: The binding affinity of the 2A10 antibody for the PSMA-expressing prostate cancer LNCaP cell line was tested using a Scatchard analysis.
LNCaP cells were obtained from ATCC(CRL-1740) and grown in RPMI media containing 10% fetal bovine serum (FBS). The cells were trypsinized and washed once in Tris based binding buffer (24 mM Tris pH 7.2, 137 mM NaCl, 2.7 mM KCl, 2mM Glucose, 1 mM CaCl₂, 1 mM MgCl₂, 0.1% BSA) and the cells were adjusted to 2×10⁶ cells/ml in binding buffer. Millipore plates (MAFB NOB) were coated with 1% nonfat dry milk in water and stored a 4° C. overnight. The plates were washed three times with 0.2 ml of binding buffer. Fifty microliters of buffer alone was added to the maximum binding wells (total binding). Twenty-five microliters of buffer alone was added to the control wells (non-specific binding). Varying concentration of ¹²⁵I-anti-PSMA antibody was added to all wells in a volume of 25 μl . Varying concentrations of unlabeled antibody at 100 fold excess was added in a volume of 25 μl to control wells and 25 μl of LNCaP cells (2×10⁶ cells/ml) in binding buffer were added to all wells. The plates were incubated for 2 hours at 200 RPM on a shaker at 4° C. […] The filters were removed and counted in a gamma counter. […]

[6] = target: T1, human prostate specific membrane …; assay: radioligand competition on LNCaP cells: unlabeled antibody varied against a fixed concentration of 125I-7F12
Experimental: as §1

T1 sequence (Q04609 whole entry): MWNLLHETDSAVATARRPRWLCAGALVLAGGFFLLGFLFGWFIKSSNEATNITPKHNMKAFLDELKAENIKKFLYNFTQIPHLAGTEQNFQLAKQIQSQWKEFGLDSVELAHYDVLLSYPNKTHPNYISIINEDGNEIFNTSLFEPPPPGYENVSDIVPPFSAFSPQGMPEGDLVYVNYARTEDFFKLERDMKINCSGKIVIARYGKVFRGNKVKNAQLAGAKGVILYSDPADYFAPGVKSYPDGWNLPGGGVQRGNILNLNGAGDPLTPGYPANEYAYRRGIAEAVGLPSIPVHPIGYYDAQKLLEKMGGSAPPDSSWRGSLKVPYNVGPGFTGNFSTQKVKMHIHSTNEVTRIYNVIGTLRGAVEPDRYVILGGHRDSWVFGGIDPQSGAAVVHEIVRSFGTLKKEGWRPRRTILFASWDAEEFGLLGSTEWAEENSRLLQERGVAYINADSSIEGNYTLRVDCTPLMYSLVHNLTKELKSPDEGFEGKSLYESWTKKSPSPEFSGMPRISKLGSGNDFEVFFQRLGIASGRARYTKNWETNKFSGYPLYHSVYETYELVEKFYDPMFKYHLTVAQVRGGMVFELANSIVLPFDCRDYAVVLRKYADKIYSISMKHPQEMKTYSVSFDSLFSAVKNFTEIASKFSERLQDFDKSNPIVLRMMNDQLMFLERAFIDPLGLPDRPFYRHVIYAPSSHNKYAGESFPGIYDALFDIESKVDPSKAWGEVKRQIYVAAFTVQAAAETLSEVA
T2 sequence (Q04609 whole entry): as above

B1: anti-PSMA human monoclonal antibody 2C6 (antibody, V domains shown)
VH: EVQLVQSGSEVKKPGESLKISCKGSGYSFTNYWIGWVRQMPGKGLEWMGIIYPGDSDTRYSPSFQGQVTISADKSISTAYLQWSSLKASDTAMYYCASPGYTSSWTSFDYWGQGTLVTVSS
VL: EIVLTQSPATLSLSPGERATLSCRASQSVSSYLAWYQQKPGQAPRLLIYDASNRATGIPARFSGSGSGTDFTLTISSLEPEDFAVYYCQQRSNWPLFTFGPGTKVDIK
binding result [1]: binds
binding result [2]: binds

B2: anti-PSMA HuMAb antibody 2A10 conjugated to a toxin (antibody, V domains shown)
VH: EVQLVQSGAEVKKPGESLKISCKGSGYSFTSNWIGWVRQMPGKGLEWMGIIYPGDSDTRYSPSFQGQVTISADKSISTAYLQWSSLKASDTAMYYCARQTGFLWSSDLWGRGTLVTVSS
VL: AIQLTQSPSSLSASVGDRVTITCRASQDISSALAWYQQKPGKAPKLLIYDASSLESGVPSRFSGYGSGTDFTLTINSLQPEDFATYYCQQFNSYPLTFGGGTKVEIK
EC50, 3H-thymidine incorporation cell proliferation assay, continuous wash [3]: 0.0643 nM
EC50, 3H-thymidine incorporation cell proliferation assay, three-hour wash [3]: 0.157 nM

B3: anti-PSMA human monoclonal antibody 1C3 (antibody, V domains shown)
VH: QVQLVESGGGVVQPGRSLRLSCAASGFTFSSYAMHWVRQAPGKGLEWVAVISYDGNNKYYADSVKGRFTISRDNSKNTLYLQMNSLRAEDTAVYYCARAVPWGSRYYYYGMDVWGQGTTVTVSS
VL: B2 VL with D28G, P40S, Y49F, Y65S, N76S
binding result [2]: binds

B4: anti-PSMA human monoclonal antibody 2F5 (antibody, V domains shown)
VH: B2 VH with S84N, S106F
VL: AIQLTQSPSSLSASVGDRVTITCRASQDISSALAWYQQKPGKAPKLLIYDASSLESGVPSRFSGSGSGTDFTLTISSLQPEDFATYYCQQFNSYPLTFGGGTKVEIKI
EC50 (read off the curve) [1]: ~0.8 µg/mL
EC50 (read off the curve) [2]: ~0.04 µg/mL

B5: anti-PSMA human monoclonal antibody 2A10 (antibody, V domains shown)
VH: B2 VH
VL: B2 VL
notes: also called anti-PSMA HuMAb 2A10
IC50 (read off the curve) [4]: 1 to 2 nM
EC50 (read off the curve) [1]: ~0.7 µg/mL
Kd [5]: ~0.8 nM
EC50 (read off the curve) [2]: ~0.04 µg/mL
IC50 (read off the curve) [6]: ~1 nM
